Changes are numbered by the printed parent chain.
T1: mouse MerTK overexpressed on CHO cells (mouse, UniProt Q60805 19-994)
T1 construct: whole, on cells; also called CHO-muMerTK OE
T1 sequence (looked up): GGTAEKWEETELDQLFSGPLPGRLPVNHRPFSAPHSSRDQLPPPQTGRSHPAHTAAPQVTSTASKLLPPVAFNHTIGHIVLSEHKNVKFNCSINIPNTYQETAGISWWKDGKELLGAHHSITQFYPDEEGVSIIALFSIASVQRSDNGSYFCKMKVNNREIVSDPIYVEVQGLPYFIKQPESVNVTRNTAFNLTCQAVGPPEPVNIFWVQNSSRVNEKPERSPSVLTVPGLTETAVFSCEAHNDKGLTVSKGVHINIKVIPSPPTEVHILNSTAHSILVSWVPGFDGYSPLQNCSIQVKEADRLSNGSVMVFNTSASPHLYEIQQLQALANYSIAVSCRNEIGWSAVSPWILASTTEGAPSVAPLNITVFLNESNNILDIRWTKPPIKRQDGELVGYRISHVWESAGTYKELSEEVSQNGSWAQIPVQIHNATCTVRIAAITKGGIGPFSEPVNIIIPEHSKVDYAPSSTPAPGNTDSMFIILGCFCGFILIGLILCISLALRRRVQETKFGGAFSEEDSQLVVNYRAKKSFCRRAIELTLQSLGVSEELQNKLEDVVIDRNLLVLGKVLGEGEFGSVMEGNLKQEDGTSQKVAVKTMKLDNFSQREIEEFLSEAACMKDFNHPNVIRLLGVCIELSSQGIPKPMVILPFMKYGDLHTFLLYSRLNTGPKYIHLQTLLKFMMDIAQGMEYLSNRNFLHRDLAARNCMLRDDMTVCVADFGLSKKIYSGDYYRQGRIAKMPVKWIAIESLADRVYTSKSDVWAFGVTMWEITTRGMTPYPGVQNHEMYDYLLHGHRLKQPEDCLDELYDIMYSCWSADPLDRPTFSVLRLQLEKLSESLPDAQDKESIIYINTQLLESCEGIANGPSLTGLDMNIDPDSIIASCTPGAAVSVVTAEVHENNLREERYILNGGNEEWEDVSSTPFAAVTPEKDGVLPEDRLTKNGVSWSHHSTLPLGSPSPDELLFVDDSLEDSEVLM

T2: human MerTK (human, UniProt Q12866 21-999)
T2 construct: endogenous receptor on cells; also called human MerTK endogenously expressed on SK-MEL-5 cells; MerTK on human macrophages
T2 sequence: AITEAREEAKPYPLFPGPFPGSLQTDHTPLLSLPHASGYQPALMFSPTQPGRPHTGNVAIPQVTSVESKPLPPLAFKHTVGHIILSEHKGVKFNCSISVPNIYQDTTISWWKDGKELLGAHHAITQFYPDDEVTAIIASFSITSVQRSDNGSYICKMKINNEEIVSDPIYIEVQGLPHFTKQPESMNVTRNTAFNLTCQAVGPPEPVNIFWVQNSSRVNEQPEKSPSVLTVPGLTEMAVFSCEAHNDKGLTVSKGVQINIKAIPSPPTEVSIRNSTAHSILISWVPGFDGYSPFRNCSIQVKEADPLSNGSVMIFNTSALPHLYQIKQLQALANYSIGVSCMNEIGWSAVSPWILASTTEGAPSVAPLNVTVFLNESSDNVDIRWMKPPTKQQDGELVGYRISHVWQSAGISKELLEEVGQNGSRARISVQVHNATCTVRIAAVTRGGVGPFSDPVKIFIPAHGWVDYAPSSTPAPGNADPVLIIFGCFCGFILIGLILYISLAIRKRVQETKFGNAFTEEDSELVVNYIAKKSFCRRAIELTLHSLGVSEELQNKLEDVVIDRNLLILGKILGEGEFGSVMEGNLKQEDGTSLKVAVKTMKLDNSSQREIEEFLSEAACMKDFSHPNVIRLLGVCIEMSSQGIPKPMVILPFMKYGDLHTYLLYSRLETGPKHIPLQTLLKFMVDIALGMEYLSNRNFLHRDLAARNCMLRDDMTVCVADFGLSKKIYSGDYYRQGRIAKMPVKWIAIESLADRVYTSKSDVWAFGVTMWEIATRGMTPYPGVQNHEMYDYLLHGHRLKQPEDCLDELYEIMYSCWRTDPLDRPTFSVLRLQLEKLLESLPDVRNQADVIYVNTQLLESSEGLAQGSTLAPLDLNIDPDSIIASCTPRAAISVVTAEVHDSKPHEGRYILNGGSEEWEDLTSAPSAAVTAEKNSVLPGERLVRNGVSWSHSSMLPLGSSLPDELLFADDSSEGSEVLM

T3: endogenous murine MerTK on bone marrow-derived macrophages (mouse, UniProt Q60805 19-994)
T3 construct: whole, on cells; MFI on MerTK KO BMDM subtracted; also called BMDM WT-KO
T3 sequence (looked up): T1 sequence (looked up)

B1: MTK-221 (antibody, human IgG1, V domains shown)
VH: QVTLKESGPGMLQSSQTLSLTCSFSGFSLSTSGMGVSWIRQPSGKGLEWLAHIYWDDDKRYNTSLQSRLTISKDTSRNQVFLKITSVDTADTATYFCGRLGAYSAFPYYFDYWGQGTTLTVSS
VL: DIQMTQSPSSLSASLGGKVTITCKASQDIHKHIAWYQHKPGKGPRLLIHYTSTLQPGIPSRFSGSGSGRDYSFSISNLEPEDLATYYCLQYDNLWTFGGGTKLEIK
B2: MTK-201 (antibody, human IgG1, V domains shown)
VH: QVQLRQSGPGLVQPSQSLSITCTVSGFSLSNYGLHWVRQSPGKGLEWLGVIWSGGITDYNAAFISRLSIIKDNSRSQVFFKMNSLQADDTAIYYCARKGHDPYAMDFWGQGTSVTVSS
VL: QIVLTQSPPIMSAFLGERVTMTCTASSSVSSSYLHWYRQMPGSSPKLWIYDTSNLASGVPARFSGSGSGTSYSLTISSMEAEDAATYYCHQYHHSPYTFGGGTKLEIK
B3: MTK-203 (antibody, human IgG1, V domains shown)
VH: QVQLQQPGAELVKPGASVKVSCKASGYTFTNYWMHWVKQRPGQGLEWIGRIHPFDTETNDNQKFKGKATLTVDKSSSTAYMQLSSLTSEDSAVYYCVIPANGGFAYWGQGTLVTVSA
VL: ETTVTQSPASLSVATGEKVTIRCITSTDIGDDMNWYQQKPGEPPKVLISEGNSLRPGVPSRFSSSGYGTDFVFTIENTLSEDVADYFCLQSDNLPLTFGSGTKLEIK
B4: MTK-230 (antibody, human IgG1, V domains shown)
VH: EVQLQQSGPELVKPGASVRIPCKASGYTFSDYNMDWVKQSHGKSLEWIGNINPNIGGTIYSQKFKGKATLTVDKSSSTAYMELRSLTSEDTAVYYCARGDYGFASWGQGTLVTVSA
VL: DIVLTQSPASLTVSLGQRATISCRASRSVSTSGYSYMHWYQQKPGQPPKLLIYLASNLESGVPARFSGSRSGTDFTLNIHPVEEEDAATYYCQHSREYPFTFGSGTKLEIK
B5: MTK-224 (antibody, human IgG1, V domains shown)
VH: QVQLQQPGAELVKPGASVKVSCKASGYTFTSYWMHWVKQRPGQGLEWIGRIHPFDSDTNYNQKFKGKATLTVDKSSSTAYMQLSSLTSEDSAVYYCSIAGFAYWGQGTLVTVSA
VL: DIVMTQSPATLSVTPGDRVSLSCRASQIISDYLNWYQQKSHESPRLLIKYASQSISGIPSRFSGSGSGSDFTLSINSVEPEDVGVYYCQNGHSFPLTFGAGTKLELK
B6: MTK-209 (antibody, human IgG1, V domains shown)
VH: B5 VH with S31N, M34I, D57E, T58P, Q82H, S84T, S97A, I98L, G100S
VL: ETTVTQSPASLSMAMGEKATIRCITSTDIDDKMNWYQQKPGKPPKLLISAGNTLRPGVPSRFSSSGYGTDFVLTVENMLSEDVADYYCLQGGALPLTFGSGTKLEIK
B7: MTK-210 (antibody, human IgG1, V domains shown)
VH: QVQLQQSGPELVKPGASVKISCKASDYEFSRSWMNWVKQRPGKGLEWIGRIYPGDGDTNYNGKFKGKATLTADKSSNTAYMQLNSLTSEDSAVYFCARKGGYYYSISNYFDYWGQGTTLTVSS
VL: QIVLTQSPAIMSASPGVKVTMTCSASSSVSYMHWYQQKPGSSPRLLIYDTSNLASGVPVRFSGSGSGTSYSLTISRMEAEDAATYYCQQWSSYPPYTFGGGTKLEIK
B8: MTK-208 (antibody, human IgG1, V domains shown)
VH: QVQLQQPGAELVVPGASVRLSCKASGYTFINYWMHWVKQRPGQGLEWIGEIDPSDSYANYNQKFKDKSTLSLDKSSSTAYMQLSSLTSEDSAVYYCARCDYYGRLDYWGQGTTLTVSS
VL: QVVLTQSPAIMSASPGEKVTITCSASSSVSYMLWFQQKPGTSPKLWIYSTSNLASGVPARFSGSGSGTSYSLTISRLEAEDAATYYCQQRSSYPPITFGAGTKLELK
B9: MTK-206 (antibody, human IgG1, V domains shown)
VH: QVQLQQSGAELARPGASVKMSCKASGYTFTSYTMHWVKQRPGQGLEWIGYINPSSGYIKNSQKFKDKATLTADKSSSTAYMQLSSLTSEDSAVYYCARTVYGYYGSSPDYWGQGTTLTVSS
VL: DIQMTQSPSSLSASLGERVSLTCRASQDIGSNLNWLQQEPDGTIKRLIYATSSLESGVPKRFSGSRSGSDYSLTISSLESEDFVDYYCLQYDSSPWTFGGGTKLEIK
B10: MTK-216 (antibody, human IgG1, V domains shown)
VH: EVQLVESGGGLVKPGGSLKLSCAASGFTFSDYGMHWVRQAPEKGLEWVAFISSGSTTIYYADTVKGRFTISRDNAKNTLILQMTSLRSEDTAIYYCTRGGFHLDYWGQGTTLTVSS
VL: SIMMTQSPSSLAVSAGEKVTMGCKSSQSVLYSANQQNYLAWYQQKPGQSLKLLIYWASTRESGVPDRFTGSGSGTDFTLTISSVQAEDLAVYYCHQYFSSWTFGGGTKLEIK
B11: MTK-215 (antibody, human IgG1, V domains shown)
VH: EVQLVESGGGLVKPGGSLKLSCAASGFIFSDYGMHWVRQAPEKGLEWVAYISSGSSTIYYGDTVKGRFTISRDNAKNTLFLQMTSLRSEDTAMYYCAKGGRYGAMDYWGHGTSVTVSS
VL: DIVLTQSPATLSVTPGDSVSLSCRASQSISNNLHWYQQKSHESPRLLIKNPSQSISGIPSRFGARGSGTDFTLIINSVETEDLGVYFCQQSNSWPFTFGSGTKLEIK
B12: MTK-214 (antibody, human IgG1, V domains shown)
VH: QVQLQQPGAELVKPGASVKVSCKASGYTFTNYWMHWMKQRPGQGLEWIGRIHPFDSDTNYNEKFTDKATLTVDKSSSTAYMQLSSLTSEDSAVYYCAIGTLIYWGQGTTLTASS
VL: DILLTQSPATLSVTPGETVSLSCRASQSIYKKLHWFQQRSHRSPRLLIKFASDSISGIPSRFTGSGSGTDYTLSINSVKPEDEAIYYCLQGYSTPLTFGAGTKLELK

Biological target: T1, mouse MerTK overexpressed on CHO cells
Experiment: FACS, CHO-muMerTK OE cells, 10 ug/ml
Description: (§1) To determine whether recombinant anti-human MerTK antibodies of the present disclosure bind to human MerTK endogenously expressed on SK-MEL-5 cells and CHO cells overexpressing mouse MerTK (CHO-muMerTK OE cells), as compared to A375 and parental CHO cells as negative controls, the following experiments were performed. SK-MEL-5 cells, A375 cells, CHO-muMerTK OE cells, and CHO parental cells were plated at 100,000 cells/well. Anti-MerTK antibodies were added to the cells at 10 μg/ml. After 60 minutes on ice, cells were washed and then stained with PE-conjugated goat anti-human IgG antibody (Southern Biotech Cat #2040-09, Birmingham, AL) in the presence of Fc block solution on ice for 30 minutes, and then washed twice with cold FACS buffer (2% FBS in PBS). Mouse anti-human MerTK-PE conjugated (Biolegend, Clone 590H11G1E3) or anti-mouse MerTK-PE conjugated (ThermoFisher, Clone DS5MMER) antibodies were used as positive controls. Stained cells were acquired on a BD FACS Canto II cytometer and the mean fluorescence intensity (MFI) was calculated with FlowJo.

MFI [MFI]	Binder
374	B1
252	B2
2080	B3
12400	B4
616	B5
1220	B6
252	B7
329	B8

Biological target: T2, human MerTK
Experiment: FACS, SK-MEL-5 cells, 10 ug/ml
Description: as §1

MFI [MFI]	Binder
42800	B1
40300	B2
29900	B7
3270	B9
43300	B10
14100	B8
19000	B11

Biological target: T3, endogenous murine MerTK on bone …
Experiment: FACS, mouse BMDM, WT minus MerTK KO
Description: as §1
To confirm anti-MerTK antibody binding to endogenous murine MerTK, bone marrow-derived macrophages (BMDM) were isolated from MerTK wild type (WT) and knockout (KO) mice (The Jackson Laboratory, Cat #011122) using standard protocols. Briefly, cells isolated from the bone marrow were plated in the presence of 50 ng/ml M-CSF (R&D Systems, Cat #416-ML) for seven days to allow for differentiation into macrophages. Cell staining, FACs, and MFI were performed and calculated as described above.

MFI [MFI]	Binder
2980	B3
9120	B4
1860	B5
813	B6
2950	B12
431	B9
466	B11

— patent US20240294650A1 (Alector, published 2024)
